This test concerns the target T1, LGR7 (Homo sapiens, UniProt Q9HBX9).
T1 construct: Human LGR7 cDNA containing the complete coding region was PCR amplified; expressed in transfected cells
T1 sequence (Q9HBX9 1-757): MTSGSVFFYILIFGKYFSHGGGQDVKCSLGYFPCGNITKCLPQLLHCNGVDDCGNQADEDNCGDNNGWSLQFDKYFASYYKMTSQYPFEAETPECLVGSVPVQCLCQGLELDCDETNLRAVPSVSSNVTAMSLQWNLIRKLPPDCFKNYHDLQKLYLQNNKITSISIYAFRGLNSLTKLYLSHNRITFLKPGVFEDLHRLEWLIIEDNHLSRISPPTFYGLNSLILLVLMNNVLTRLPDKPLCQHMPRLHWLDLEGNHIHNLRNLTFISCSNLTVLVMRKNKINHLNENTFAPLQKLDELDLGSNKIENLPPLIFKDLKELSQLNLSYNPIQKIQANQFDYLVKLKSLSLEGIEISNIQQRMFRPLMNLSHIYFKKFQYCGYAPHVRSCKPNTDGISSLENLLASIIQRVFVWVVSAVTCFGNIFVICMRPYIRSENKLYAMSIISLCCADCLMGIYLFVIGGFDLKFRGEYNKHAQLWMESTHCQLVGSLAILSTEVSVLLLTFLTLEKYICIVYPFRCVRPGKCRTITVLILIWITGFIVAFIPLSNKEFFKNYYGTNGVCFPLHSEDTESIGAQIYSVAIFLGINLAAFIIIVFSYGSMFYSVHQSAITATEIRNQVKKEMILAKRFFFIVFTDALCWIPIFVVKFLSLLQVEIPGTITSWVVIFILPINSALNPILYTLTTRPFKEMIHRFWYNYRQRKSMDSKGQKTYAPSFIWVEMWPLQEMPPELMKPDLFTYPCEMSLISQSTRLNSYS
The experiment in a line: Stimulation of β-galactosidase expression in SK-N-MC/β-gal cells. The format is cell-based. How it is done: FIGS. 1A-1D show the activation of GPCR135 and GPCR142 by relaxin-3 B-chain, but not of LGR7 or LGR8. In FIG. 1A, SK-N-MC/β-gal cells expressing human GPCR135 were stimulated with relaxin-3, relaxin-3 B-chain, porcine relaxin, or INSL3 at various concentrations to inhibit the forskolin stimulated β-galactosidase expression. Forskolin was added to cells at a final concentration of 5 μM to stimulate the β-galactosidase expression. FIG. 1B depicts results for SK-N-MC/β-gal cells expressing human GPCR142 stimulated as in FIG. 1A. In FIG. 1C, SK-N-MC/β-gal cells expressing human LGR7 were stimulated with relaxin-3, relaxin-3 B-chain, porcine relaxin, and INSL3 at various concentrations to induce the β-galactosidase expression. The intracellular β-galactosidase activities were measured by a colorimetric assay using CRGP as the substrate and reading the absorbance at a wavelength of 570 nm. For FIG. 1D, SK-N-MC/β-gal cells expressing human LGR8 were stimulated as in FIG. 1C.
FIGS. 4A-4D illustrate the evaluation of the agonist activity of relaxin-3 chimeric polypeptides in biofunctional assays. Different chimeric polypeptides at various concentrations were added to SK-N-MC/β-gal cells expressing human GPCR135 (FIG. 4A) or GPCR142 (FIG. 4B) to inhibit forskolin stimulated β-galactosidase expression. Human relaxin-3 was used as the positive control. In parallel, chimeric polypeptides at various concentrations were added to SK-N-MC/β-gal cells expressing human LGR7 (FIG. 4C) and LGR8 (FIG. 4D) to stimulate β-galactosidase expression. Relaxin-3 and INSL3 were used as positive controls for LGR7 and LGR8, respectively. Intracellular β-galactosidase activity was measured by a colorimetric assay using CRGP as the substrate and reading the absorbance at wavelength of 570 nm. Data represent mean±SEM (n=3).
It has been shown that synthetic human relaxin-3 B-chain alone, but not A-chain, is an agonist for both GPCR135 and GPCR142 (Liu et al., 2003, Journal of Biological Chemistry, 278:50754-50764 and Liu et al., 2003, Journal of Biological Chemistry, 278:50765-50770). Those studies were repeated herein in SK-N-MC/β-gal cells, which harbor a β-galactosidase gene under the control of a cAMP responsive element (CRE) (Liu et al., 2001, Molecular Pharmacology, 59:420-426). In such SK-N-MC/β-gal cells, an increase in intracellular cAMP concentration leads to increased β-galactosidase gene expression, the activity of which is measured using Chlorophenol Red-β-D-Galactopyranoside (CPRG) as the substrate.
The inventive chimeric polypeptides were each independently tested for their ability to activate either GPCR135, GPCR142, LGR7, or LGR8, respectively, in separate pools of SK-N-MC/β-gal cells (see supra), each pool stably expressing one of the respective receptors, as indicated (FIG. 4).
Cells were seeded in 96-well tissue culture plate at a density of 30,000 cells/well in MEM plus 10% fetal serum, sodium pyruvate, penicillin, streptomycin, and G418 (400 mg/L). For cells expressing GPCR135 or GPCR142, forskolin was added to cells at a final concentration of 5 μM to stimulate intracellular cAMP accumulation. Different concentrations of each of the inventive polypeptides were then added to the cells to inhibit the forskolin induced cAMP accumulation. For cells expressing LGR7 or LGR8, intracellular cAMP was stimulated with each of the inventive chimeric polypeptides at various concentrations.
For all cells, after adding the chimeric polypeptides, cells were incubated for 6 additional hours in 37° C. incubator. The media was then aspirated and the β-galactosidase activities measured as previously described (Liu et al., 2001, Molecular Pharmacology, 59:420-426). The results were analyzed by Prism 3.0 software. […]

Turning to “R3/I4: chimeric polypeptide: human relaxin-3 B-chain and INSL4 A-chain; mature polypeptide SEQ ID NO:22 (RAAPYGVRLCGREFIRAVIFTCGGSRWFDPFCCEVICDDGTSVKLC; Human Relaxin-3/Insulin-like 4 chimeric mature polypeptide)”, the “activation of LGR7, in words” value is “no activity”.
